# In PMC4837482, “The complex binding mode of the peptide hormone H2 relaxin to its receptor RXFP1” (Nature Communications, 2016):
# Positions count from the first letter of the chain named.
# Legend:
# Assay in all cases: cAMP activity assay (pCRE β-galactosidase reporter), transfected HEK293T cells
# Assay type in all cases: cell-based
# RXFP1 A55L = molecular target: T1, RXFP1 A55L (Homo sapiens, UniProt Q9HBX9, A77L); settings: construct A55L, ±s.e.m.
# T1 construct: cells expressing full-length RXFP1 and mutants; expressed in transfected cells; host or cells: HEK293T
# T1 sequence (Q9HBX9 23-757 A77L limits assumed): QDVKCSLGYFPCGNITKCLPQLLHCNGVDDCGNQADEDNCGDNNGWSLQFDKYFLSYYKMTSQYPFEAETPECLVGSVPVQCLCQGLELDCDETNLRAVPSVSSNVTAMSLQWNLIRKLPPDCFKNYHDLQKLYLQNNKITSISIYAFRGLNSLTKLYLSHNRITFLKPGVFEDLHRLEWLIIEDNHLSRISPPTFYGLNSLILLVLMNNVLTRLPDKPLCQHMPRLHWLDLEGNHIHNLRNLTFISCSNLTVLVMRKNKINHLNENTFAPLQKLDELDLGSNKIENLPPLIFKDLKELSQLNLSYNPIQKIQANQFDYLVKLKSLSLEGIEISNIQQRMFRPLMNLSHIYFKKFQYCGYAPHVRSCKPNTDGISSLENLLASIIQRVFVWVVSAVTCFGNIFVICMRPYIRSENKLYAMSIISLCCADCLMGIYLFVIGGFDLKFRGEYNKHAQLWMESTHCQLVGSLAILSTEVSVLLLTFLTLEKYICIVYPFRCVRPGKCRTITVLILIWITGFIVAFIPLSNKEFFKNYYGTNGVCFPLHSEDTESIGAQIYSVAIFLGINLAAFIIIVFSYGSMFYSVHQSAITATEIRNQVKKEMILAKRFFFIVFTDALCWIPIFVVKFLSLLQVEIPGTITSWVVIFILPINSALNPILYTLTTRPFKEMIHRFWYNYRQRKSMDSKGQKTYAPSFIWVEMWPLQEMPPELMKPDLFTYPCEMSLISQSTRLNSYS
# Summary of the method: (§1)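 HEK293T cells transfected with mutant RXFP1 and pCRE β-galactosidase reporter, stimulated with H2 relaxin in minimal media/1% DMSO. β-Galactosidase read with chlorophenol red-β-D-galactopyranoside at 570 nm; responses pooled from ≥3 triplicate experiments as % of 5 μM forskolin maximum.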
# RXFP1 F54A/Y58A = molecular target: T2, RXFP1 F54A/Y58A (Homo sapiens, UniProt Q9HBX9, F76A/Y80A); settings: construct F54A/Y58A, ±s.e.m.
# T2 construct: cells expressing full-length RXFP1 and mutants; expressed in transfected cells; host or cells: HEK293T
# T2 sequence (Q9HBX9 23-757 F76A/Y80A limits assumed): T1 sequence (Q9HBX9 23-757 A77L limits assumed) with F54A, L55A, Y58A
# Summary of the method: as §1
# RXFP1 T61A = molecular target: T3, RXFP1 T61A (Homo sapiens, UniProt Q9HBX9, T83A); settings: construct T61A, ±s.e.m.
# T3 construct: cells expressing full-length RXFP1 and mutants; expressed in transfected cells; host or cells: HEK293T
# T3 sequence (Q9HBX9 23-757 T83A limits assumed): T1 sequence (Q9HBX9 23-757 A77L limits assumed) with L55A, T61A
# Summary of the method: as §1
# [1] = percentage of maximum response to 5 μM Forskolin
substance,measurement,setting,value
H2 relaxin: two-chain 6-kDa peptide hormone structurally related to insulin; recombinant human gene-2 H2 relaxin provided by Corthera,H2 relaxin pEC50,RXFP1 A55L; cAMP reporter,10.75±0.17 (5)
same,H2 relaxin Emax,RXFP1 A55L; [1],123.59±8.51 (5) %
same,H2 relaxin pEC50,RXFP1 F54A/Y58A; cAMP reporter,"9.87±0.08 (5)***^,#,θ"
same,H2 relaxin Emax,RXFP1 F54A/Y58A; [1],99.94±2.19 (5) %
same,H2 relaxin pEC50,RXFP1 T61A; cAMP reporter,11.15±0.17 (5)
same,H2 relaxin Emax,RXFP1 T61A; [1],142.58±15.97 (4) %
